Legend:
human alpha-thrombin [1] = target: T1, human alpha-thrombin (human, UniProt P00734;P00734 328-363;364-622); assay: BLI; kon 3.9e7 M-1s-1, koff 2.1e-3 s-1; DAB moiety binds active site; not given in the material (Methods for BLI and fluorogenic assay are headings only)
human alpha-thrombin [2] = target: T1, human alpha-thrombin; assay: inhibition of fluorogenic peptide cleavage; DAB moiety contributes; max inhibition >99%; not given in the material (Methods for BLI and fluorogenic assay are headings only)
thrombin S195A = thrombin S195A (UniProt P00734;P00734 315-363;364-622, S568A); assay: X-ray crystallography; 2.2 A; Na+; DAB in S1 pocket, aptamer at exosite 2; not given in the material (Methods for BLI and fluorogenic assay are headings only)
human alpha-thrombin [3] = target: T1, human alpha-thrombin; assay: inhibition of fluorogenic peptide cleavage; maximum inhibition 55%; not given in the material (Methods for BLI and fluorogenic assay are headings only)
human alpha-thrombin [4] = target: T1, human alpha-thrombin; assay: inhibition of fluorogenic peptide cleavage; maximum inhibition 30%; not given in the material (Methods for BLI and fluorogenic assay are headings only)
human alpha-thrombin [5] = target: T1, human alpha-thrombin; assay: BLI; not given in the material (Methods for BLI and fluorogenic assay are headings only)

B1: Bio-HD22-7A-DAB (structured_DNA)
DNA: AAAAAAAAGTCCGTGGTAGGGCAGGTTGGGGTGACT
modifications: 5' C6-dabigatran
Human alpha-thrombin [1]
  Kd: 0.054 nM

B2: HD22-7A-DAB (structured_DNA)
DNA: B1 DNA
modifications: 5' C6-dabigatran
Human alpha-thrombin [2]
  IC50: 0.1 nM
Thrombin S195A
  binding result: binds

B3: HD22-0A-DAB (structured_DNA)
DNA: AGTCCGTGGTAGGGCAGGTTGGGGTGACT
modifications: 5' C6-dabigatran
Human alpha-thrombin [3]
  IC50: 0.55 nM

B4: HD22 (structured_DNA)
DNA: AGTCCGTGGTAGGGCAGGTTGGGGTGACT
Human alpha-thrombin [4]
  IC50: 0.95 nM

B5: Bio-HD23-7A-NH2 (ssDNA)
DNA: AAAAAAAAGTCCGTAATAAAGCAGGTTAAAATGACT
modifications: 5' C6-amine
Human alpha-thrombin [5]
  binding result: no binding

Source: PMC11087511
